Experimental data as given in PMC4496297.

Tests used:
[1] = target: FimC-FimH (Escherichia coli) (UniProt P31697); assay: SPR; settings: cited from earlier work
[2] = target: FimC_(Q19C)-FimH chaperone-adhesin complex, FimC labeled with coumarin maleimide (CPM) (Escherichia coli) (UniProt P31697); assay: other fluorescence titration
[3] = target: FimCFimH, where FimC was labeled with the thiol-reactive probe coumarin maleimide (CPM) at Q19C, T51; assay: other fluorescence titration

Kd [2] [nM]	Substance	further results
	FimD (from UniProt P30130)	Kd [1]: 9.1 nM
389	FimD_(ΔC1ΔC2) (purified, His-tag removed) (from UniProt P30130 46-878) (domain or fragment)	
40.8	FimD_(ΔNΔplug) (purified, His-tag removed) (from UniProt P30130 46-878) (domain or fragment)	
213	FimDΔC2 (purified, His-tag removed) (from UniProt P30130 46-878) (domain or fragment)	
> 1200	FimDΔN (purified, His-tag removed) (from UniProt P30130 46-878) (domain or fragment)	
	WT FimD usher (purified, His-tag removed) (from UniProt P30130 46-878) (natural protein)	Kd [3]: 9.5 nM
